Results reported in the supplement of paper PMC11780869.

Tested on: Bacillus subtilis
Test: cleaved RNA product abundance (RNA/gDNA barcode ratio) relative to median wild-type variant (ratio to wild type); higher = more accumulation of the downstream cleavage product
Method in brief: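 The B. subtilis chromosome carried reporter mRNAs, truncated aprE or tetM, containing barcoded RNase Y cleavage-site windows mutagenized using oligos with a 9% error rate. After growth in LB at 37°C from OD600 0.0003 to 0.3, cleaved RNA was gel-selected, reverse transcribed and barcode-sequenced next to genomic DNA barcodes, with UMI collapsing. Each construct's RNA:gDNA barcode ratio was scaled to the median construct with the unmutated site. That scaled ratio is reported as cleaved product abundance.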

[1] = experiment (reporter, strain, medium): exp 2b: truncated aprE reporter, strain BJT200, cleavage site: cggR-gapA (positions -7 to +36 mutated)
[2] = experiment (reporter, strain, medium): exp 4a: truncated aprE reporter, strain BJT201 with 2% xylose (RNase J1 expressed), cleavage site: cggR-gapA (positions -7 to +36 mutated)
[3] = experiment (reporter, strain, medium): exp 8a: truncated aprE reporter, strain BJT201 with 2% xylose (RNase J1 expressed), cleavage site: glnRA (positions -5 to +31 mutated)
[4] = experiment (reporter, strain, medium): exp 6: tetM reporter, strain 168, cleavage site: cggR-gapA (positions -7 to +36 mutated)

Sequence	cleaved RNA product abundance [1]	cleaved RNA product abundance [2]	cleaved RNA product abundance [3]	cleaved RNA product abundance [4]
ACAGACGAAGGAGCCGCAAAGAAGTTATTTAGGTATGAATAATCCCTCAATATAAATATCTCTCACTTATTTAAA	0.121	0.165	–	–
CGACATGTCCCGCTTCTTTCATTAATCCGTTAGAAACTGTTTCGCTATATACATTTACCTTTTAAGAGGAGGAAT	–	–	0.12	–
CGACATGTCCCGCTTCTTTCATTAATCCGTTACCAACTGTTTTGCTATATACAATTACCTTTTAAGAGGAGGAAT	–	–	0.181	–
ACAGACGAAGGAGCCGCAAAGAAGTTATTAAGGCATAAATAATCCCTCAATATAAATATCTCTCACTTATTTAAA	0.0865	0.107	–	–
ACAGACGAAGGAGCCGCAAAGAAGTTATTTAGGGATGAATAATCCCACAATATAAATATCTCTCACTTATTTAAA	–	0.268	–	–
ACAGACGAAGGAGCCGCAAAGACGTTATTAAGGGATGAATAATCACTCAATATAAATATCTCTCACTTATTTAAA	0.101	0.188	–	–
CGACATGTCCCGCTTCTTTCATTAATCCTTTAGCAACTGTTTTGCTATACACATTTACCTTTTAAGAGGAGGAAT	–	–	0.451	–
CGACATGTCCCGCTTCTTTCATTAATCCATCAGCAACTGTTTTGCTATATACATATACCTTTTAAGAGGAGGAAT	–	–	0.507	–
ACAGACGAAGGAGCCGCAAAGAACTTATTAAGGGATGAATAATCACTCAATATAAATATCTCTCACTTATTTAAA	0.102	0.152	–	–
CGACATGTCCCGCTTCTTTCATTAATCCGTGAGCAACTGTTTTGATATATACATTTACCTTTTAAGAGGAGGAAT	–	–	0.427	–
CGACATGTCCCGCTTCTTTCATTAATCCTTTAGCAACTGTATTGCTATATACATTTACCTTTTAAGAGGAGGAAT	–	–	0.83	–
ACAGACGAAGGAGCCGCAAAAAAGTTATTAAGGGATGACTAATCCCTCAATATAAATATCTCTCACTTATTTAAA	0.504	0.61	–	–
ACAGACGAAGGAGCCGCAAAGAAGTTATTAAGAGATGAATAATCCCTCAATAAAAATATCTCTCACTTATTTAAA	–	0.113	–	–
CGACATGTCCCGCTTCTTTCATTAATCCGTTAGCACCTCTTTTGCTATATACATTTACCTTTTAAGAGGAGGAAT	–	–	0.235	–
ACAGACGAAGGAGCCGCAAAGAAGTTATTTATGGATGAATAATCACTCAATATAAATATCTCTCACTTATTTAAA	–	0.124	–	–
CGACATGTCCCGCTTCTTTCATTAGTCCGTTAGCAACTGTTTTGCTATATATATTTACCTTTTAAGAGGAGGAAT	–	–	0.842	–
ACAGACGAAGGAGCCGCAAAGAAGTTATTAATGGATGAATAATCCCTCAATATACATATCTCTCACTTATTTAAA	0.157	0.165	–	–
CGACATGTCCCGCTTCTTTCATTAATCCGTTCGCAACTGTTTTGCTATATACATTTACCTTTTAAGAGGAGGAAT	–	–	0.345	–
CGACATGTCCCGCTTCTTTCATTAATCAGTTAGCAACTGTTTTGCTATATACATTTACCCTTTAAGAGGAGGAAT	–	–	1.22	–
CGACATGTCCCGCTTCTTTCATTAATCCGTTAGCAACTGTTTTGCAATATAGATTTACCTTTTAAGAGGAGGAAT	–	–	0.599	–

Sequence	cleaved RNA product abundance [1]	cleaved RNA product abundance [2]	cleaved RNA product abundance [3]	cleaved RNA product abundance [4]
ACAGACGAAGGAGCCGCAAAAAAGTTATTAAGGAATGAATAATCCCTCAATATAAATATCTCTCACTTATTTAAA	0.112	0.156	–	–
ACAGACGAAGGAGCCGCAAATAAGTTATTAAGGGATGAATAATCCCTCAAAATAAATATCTCTCACTTATTTAAA	0.34	0.322	–	–
ACAGACGAAGGAGCCGCATAGAAGTTATTAAGGGATGAATAATCCCTCAATATAAATATCTCTCACTTATTTAAA	1	1.01	–	1.06
ACAGACGAAGGAGCCGCAAGGAAGTTATTAAGGGATGAAAAATCCCTCAATATAAATATCTCTCACTTATTTAAA	–	0.663	–	–
CGACATGTCCCGCTTCTTTCATTAATCCGTTAGCAACTGTTTTGCAATAAACATTTACCTTTTAAGAGGAGGAAT	–	–	0.232	–
CGACATGTCCCGCTTCTTTCATTAATCCGTTTGCAACTGTTTTTCTATATACATTTACCTTTTAAGAGGAGGAAT	–	–	0.768	–
CGACATGTCCCGCTTCTTTCATTAATCCGTTATCAACTCTTTTGCTATATACATTTACCTTTTAAGAGGAGGAAT	–	–	0.252	–
ACAGACGAAGGAGCCGCAAAGAAGTTATTAAGGGATGAATAATCCCTCAATATAAAAATCACTCACTTATTTAAA	–	1.16	–	–
CGACATGTCCCGCTTCTTTCATTAATCCGTTAGAAACTGTTTTGCTATATACATTTACTTTTTAAGAGGAGGAAT	–	–	0.331	–
ACAGACGAAGGAGCCGCAAAGAAGTTATTAAGAGACGAATAATCCCTCAATATAAATATCTCTCACTTATTTAAA	0.0781	0.0728	–	–
CGACATGTCCCGCTTCTTTCATTAATCCGTTAACAAATGTTTTGCTATATACATTTACCTTTTAAGAGGAGGAAT	–	–	0.287	–
ACAGACGAAGGAGCCGCAAATAAGTTATTAAGGGATGAATAATCCCTCCATATAAATATCTCTCACTTATTTAAA	0.274	0.333	–	–
ACAGACGAAGGAGCCGCAAAAAAGTTATTAAGGGATGAATAATACCTCAATATAAATATCTCTCACTTATTTAAA	0.139	0.17	–	–
ACAGACGAAGGAGCCGCTAAGAAGTTATTAAGGAATGAATAATCCCTCAATATAAATATCTCTCACTTATTTAAA	–	0.0845	–	–
ACAGACGAAGGAGCCGCAAAGAAGTTATTAAGGGGTGAAAAATCCCTCAATATAAATATCTCTCACTTATTTAAA	–	0.504	–	–
CGACATGTCCCGCTTCTTTCATTAATCCGTAAGCAACAGTTTTGCTATATACATTTACCTTTTAAGAGGAGGAAT	–	–	0.348	–
ACAGACGAAGGAGCCGCAAAGAAATTATTAAGAGATGAATAATCCCTCAAAATAAATATCTCTCACTTATTTAAA	0.114	–	–	–
ACAGACGAAGGAGCCGCAACAAAGTTATTAAGGGATGAATAATCCCTCAATATAAATATCTCTCACTTATTTAAA	–	0.8	–	–
ACAGACGAAGGAGCCGCAAAGAAGTTATTAATGGATGAATAATCCATCAATATAAATATCTCTCACTTATTTAAA	0.667	1.21	–	–
ACAGACGAAGGAGCCGCAAAGAAGTTATTTAGGGATGAATAATTCCTCAATATAAATATCTCTCACTTATTTAAA	–	0.405	–	–

Sequence	cleaved RNA product abundance [1]	cleaved RNA product abundance [2]	cleaved RNA product abundance [3]	cleaved RNA product abundance [4]
CGACATGTCCCGCTTCTTTCATTAATCCGTTTGCAACTCTTTTGCTATATACATTTACCTTTTAAGAGGAGGAAT	–	–	0.483	–
CGACATGTCCCGCTTCTTTCATTAATCCGTGAGCAACTATTTTGCTATATACATTTACCTTTTAAGAGGAGGAAT	–	–	0.988	–
ACAGACGAAGGAGCCGCAATGAAGTTATTAAGAGATGAATAATCCCTCAATATAAATATCTCTCACTTATTTAAA	0.131	0.204	–	–
ACAGACGAAGGAGCCGCAAAGAAGTGATTAAGGGATGAATAATCTCTCAATATAAATATCTCTCACTTATTTAAA	–	0.306	–	–
ACAGACGAAGGAGCCGCAAAGATGTTATTAAGGGATGAATAATCCCTCAATATAAATAACTCTCACTTATTTAAA	0.767	0.897	–	–
ACAGACGAAGGAGCCGCAAAGAAGTTATTAAGGGATGAATTATCCCTCATTATAAATATCTCTCACTTATTTAAA	–	0.32	–	–
ACAGACGAAGGAGCCGCAAAGAAGTTCTTAAGGGATGAATAATACCTCAATATAAATATCTCTCACTTATTTAAA	–	0.14	–	–
ACAGACGAAGGAGCCGCAAAGAAGTTATTACGGGATGAATAATCCCTTAATATAAATATCTCTCACTTATTTAAA	–	1.47	–	–
ACAGACGAAGGAGCCGCAAAGAAGTTATTAAGGTATGAATAATCCCTCAATGTAAATATCTCTCACTTATTTAAA	0.094	0.0511	–	–
ACAGACGAAGGAGCCGCAAATAAGTTATTAAGGGAAGAATAATCCCTCAATATAAATATCTCTCACTTATTTAAA	0.497	0.366	–	–
ACAGACGAAGGAGCCGCAAAGAAGTTATTAAGGGATGAATAAACCCTCAATATAAATATCTCTCACTTATTTAAA	0.443	0.52	–	0.578
ACAGACGAAGGAGCCGCAAAGAAGTTATTAAGGCATGAATAATCCCTCAAAATAAATATCTCTCACTTATTTAAA	0.0982	0.141	–	–
ACAGACGAAGGAGCCGCAAAGAAGTTATTAAGGGAAGAATAAGCCCTCAATATAAATATCTCTCACTTATTTAAA	0.433	0.823	–	–
CGACATGTCCCGCTTCTTTCATTAATCAGTTAACAACTGTTTTGCTATATACATTTACCTTTTAAGAGGAGGAAT	–	–	0.249	–
CGACATGTCCCGCTTCTTTCATTATTCCGTTAGCAACTGGTTTGCTATATACATTTACCTTTTAAGAGGAGGAAT	–	–	1.54	–
ACAGACGAAGGAGCCGCACAGAACTTATTAAGGGATGAATAATCCCTCAATATAAATATCTCTCACTTATTTAAA	–	0.558	–	–
ACAGACGAAGGAGCCGCAAAGAAGTTATTAAGTGATGAATCATCCCTCAATATAAATATCTCTCACTTATTTAAA	0.125	0.147	–	–
ACAGACGAAGGAGCCGCAAAGAAGTTATTAATGGATAAATAATCCCTCAATATAAATATCTCTCACTTATTTAAA	0.102	0.116	–	–
